The source of these data is the domain aggregation screens of Martell et al. (2025).

This data set in a line: soluble fraction after stress (log2 fold change); higher = more stays soluble; pooled small domains, quantitative proteomics. As to conditions: stress: 50 degC. Summed up: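 Pooled custom libraries of small protein domains were each held under stress at 50°C. The read-out, high-throughput quantitative proteomics, tracked how much of each protein stayed soluble. This is reported as a base-two log fold change used to indicate aggregation propensity. Higher values mean more protein remains in solution.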
With “HMGEIVVPDLIGKSLTEATRILSDSTLTVGKVNYQISSTLLPNTVLDQYPAPGNKLNSGNTVDLFITKE”, the “soluble fraction (log2)” value was -0.0436. As to “HMDGIIIPDVSGKSYAEAVATLNEKGFKVEKGEDAGSSLAKDLVSYTNPAAGNRAKSGATISVFVSTGANA”, the “soluble fraction (log2)” value is 0.17. In the case of “HMDPSHGESRENLDIMRIIDETHLEYPSWGYRKMTDHLRANHGYTINRKRVRRLMRLMDIIALFPG”, the “soluble fraction (log2)” value was -1.47. For “HMQAGILTDTAAKNARIKKIDTERLEAELDQKRIVIVTGFQGVDRNQNITTLGRGGSDTSAVALAAAVSIT” the value was 0.185; for “HMKFTELEQLMLKREINTLADIARVLKTTPQAVSNWKARDQIPYHIVAKINASINKDSNDSSLSI”, 0.00789; for “HMSLEEQNGAKDRQVEAYELLLKAQRALDQEDTAGFQAAMKDLEPLSSQLDAQGQTLYHELLPFVS”, -0.0812. As to “HMLPTVSITGHIFIRSGSPLNRIFVGEKIYHVGDHIDRDWVIESIGIDTLTIRSGTLSTQLPL”, the “soluble fraction (log2)” value was -2.87. For “HMAVENTGLSKRELEILQMMARGMSNQEIGDALFISLSTVKTHVASIFSKLQAVRRTQAVGIAKSLKII” the value was -0.917; for “HMKINVQETEVYRYLLERADRLYSMILGEERENLMERTRFFEKEVAKASLPHLPKLYDEFSIYLDRLERG”, -0.138; for “HMVNSADLAAKPFIDLLVSTRQQLREAKQYDLADTIRDELTNHGITIEDKPQGSEWQYEFNPNS”, 0.112. The same measure for “HMVWINIRDLSDLFSKSGKSENSKNILDLQTLKIEKLLGGGQINTPYTIKVKQATPSAIEKVKQAGGEVIL”: -0.0218; for “HMGASSLVGRSARVLQAVTDSDGRIKLAGETWSARLAAGATSTVGPGEEVRVIAIHGATAIVAPV”: 0.0322. As to “HMNKEDIASNEKLLGLLNHMSKVLKDIDFIKDDRPMIVRKINHIFKKATLSEEEINILRGVLSAIENHS”, the “soluble fraction (log2)” value is -0.479. On to “HMGPYGAGSAAPAEDGSGPEGWTVKGNAKSMLYHTEGSPYYGRTNADVWFRDEESAEAAGFRRWDRK”, for which the “soluble fraction (log2)” value came out at 0.0581. As for “HMKKTTEFAVTPEFQQRLEASPELKAAFQALTPGRQRAHLLFFAAPKQAQTRQARIEKSLPQIMAGKGLN”, the “soluble fraction (log2)” value was -0.184. Turning to “HMSPPALAVQRDGSNVQISWPGAEEGWRLESSAEPSGAAWDLIAQNPTPVGGRWTVSLTEPTGRRFYRLVK”, the “soluble fraction (log2)” value came to 0.0321. For “HMNEVETWSVQADGATGRIDKWLAEQNEWSRSQVQEWLKAGRVEVDGRVVKPNYKLSGTESIAVHIPEAV” the value was -0.0928; for “HMKFLYQKAREEIISLIQDGEIKPSEKIMPERELSELLGYNRMTIKKAINSLVAEGVLMKKRGAGTFLLG”, -0.387; for “HMEPELSVDMKPLDGLLLAIKKELQAAQMYTRLARASADAEQKMVFEQLANMEKGHKARLEDIYT”, -0.0279.

On to “HMVLSVRDRMVQILDQVKTGEYKRIEDFFSADEGRTGFVVSFVAILELVKGGLLTITQSKNLAPIYVRLPN”, for which the “soluble fraction (log2)” value is -0.19. For “HMQVVDWSQVDKEDYLLATKRRAVSTGELKFLLLNNLTYDLTQTRFFKGMDASYYYEGYNLYQTGE”, the “soluble fraction (log2)” value turned out to be 0.122. For “HMTDVRFISIPIQKEHPWNRKLVSELNLPPGTLLVFLRRTGENIVPNGKTMIQEGDVLVLGASAYR” the value was -0.295.

For “HMGITDHIYQDLKKRLENGNYPAGTRFPSESTLADEFSVNKMTMNKIVSMLAEQGYLIRGNRGAGTRVAEN”, the “soluble fraction (log2)” value was -0.0862.

With “HMSTTYAPYLLGETEQEAIRMARNAGLDPQVVRQSDKSEAGTVILQSHDFGFAMKRGAVILITVSSGPLQ”, the “soluble fraction (log2)” value was -1.44. Consider “HMDFEEGAVKWFNTKKGYGFITRDQGDDIFVHFRNIKAQSRRSLTDGERVTFVVTEGDKGLQADHVSPV”, for which the “soluble fraction (log2)” value was -0.31. “HMSDHSSLAGKEGVAVTPLRPAGTAEIDGKRMDVVTMGDYIKAGDHIKVVKVEGNRIIVAKN”: the “soluble fraction (log2)” value was found to be 0.0433.

In the case of “HMNSTVKVPNVVGMSVPQAKALLEQNHLLVQGIREVSTDKAPAGIVINQLPYSDAEVKEERHIYLTVSKGK”, the “soluble fraction (log2)” value is at least 0.62. For “HMRPEARAASLSDEERKIFDYLAANGEKTIDNISVAVKMSAADILKNITLMSAKGLVYMPSAGRYGVKGN” the value was -0.00201. Consider “HMKEVDERPWGKYEVLLDAPDVKVKRITVNPGQRLSYQYHEKRAEVWTVVSGILTIILEDDKLFRG”, for which the “soluble fraction (log2)” value stood at 0.237.

Take “HMKLLLSANISKLRKKYSMTQEQLAEALGVTFASVSKWERGVATPELKLIAEMADMFEVSIDALIGYEFRN”: the “soluble fraction (log2)” value was -1.39. For “HMGFLTKTQRLEILLHLKDEPYYNVEKLKELIKNRYGIVYQSSQSYYDLLKEAGLSWHQTQA” the value was -0.64; for “HMINIFKVKKAMEEIFASEWEDSPYTDQKISQILWSRGFSVSTGLVEKYRGQMGVPDANSRLNLN”, -2.38. “HMISKQQRQALILDIIQKQSITSQEALLTELQRHHVMTTQTTVSRDIRALGIVRIKDVNGELSYQQLQ”: the “soluble fraction (log2)” value is -2.5. With “HMSNRDNPVVLDFKKVKSTEQLDNILEEYIRENFEGYTVKGRMFSSDEGKFIIALALKDDDGKRALVYFDV”, the “soluble fraction (log2)” value was -0.635. As to “HMLQPQMKKFLNYESARNKMRPFGLSTRKEWRLFVDEGNRPADIPGDPYKKYKNKGWISWPHFLGK”, the “soluble fraction (log2)” value is -1.58. For the sequence “HMLDSPHDDLNRKIVQMLQNDGRLPYKDIAEVLSVSEGTVRNRVQRMRDAGMLNIVALIDPMAI”, the “soluble fraction (log2)” value is 0.158.

Regarding “HMDTITDSYTLEKGKLRAKVMEYELPESKKKEYSATFEYRGVYYHMIGIIEKADFEEILKNLHFP”, the “soluble fraction (log2)” value is -0.165.

Regarding “HMESGFEAVREVARHGSFANAAKALGVSGPAVSRQVKSLEERLGLVFFHRTTRMVTLTEAGQQLVDTLD”, the “soluble fraction (log2)” value was -0.00498. For the sequence “HMTGMEAAEFGKRIMKLRKQKGMTQSKLAEQINVSNKAISRWETGEGFPEITLLKPLAKALGTTVDELFGE”, the “soluble fraction (log2)” value is -0.204.

Consider “HMIHSEDMDDHILGHKLVDQYLNKHIEFDNIKKAWNYHTVAIKKFGRYPHRNKILKRESTIEEIDFLKQP”, for which the “soluble fraction (log2)” value worked out at 0.149. For “HMFPELNAEETQVVQLLQKQTEGMQVNSLVVESNIPITRMSGILFELELKGIIRNYAGGVYKL”, the “soluble fraction (log2)” value is -2.16. For “HMKQAVESAEAIFEEIARIKKLSLVKSEAEEIARKTGLQKFTIASQLLKNQHAYEMDESEIASLWDKKI” the value was 0.0237; for “HMSTANIVVPDVKGKTFEEAKKAIEAEGLTAKAEGDESGVVQKTSPSYGVSVESGSEVTLTLVKSDD”, -0.0409; for “HMLRDTTLLHIDSIVRDGSTAMANITVRDEGTDLEFPLQLRMERGDMGWQVVRIVNYRAYLEAVQKA”, -0.336. Turning to “HMHGTIHSAAYGGDIEAVKKFLAAGADVNANGGGRTPLDLAIQVKNTEIADLLRKHGGKTGDELKA”, the “soluble fraction (log2)” value is 0.0271. “HMTTIHVDPEKISKIIGPGGKTIKKIVEETGAKIDIEEDGRVYIAAVNSEEAAKAIDMINGI”: the “soluble fraction (log2)” value was determined as 0.257. For “HMDSLEIEEPITVKSLSAASGLKISDIIRKLMQEGIMATANQVIDREQAEAVLIDYNVDLVVKR” the value was -0.248; for “HMNVVINNELVSLMVEAMKDGVSSKSIQEEFEGYKISGKTITKKVLTAHVNKALEVFADMQE”, -0.213; for “HMPYIVNHIHLKSEDPKITADWFVKAFNFEIVSDVVRHFGDRFIVTKAEGGMTINISGVRDGEEL”, -0.0655. For “HMEKRLDYTFGLNKEQLLYLTKSIKDGDFYNVSFIDGTEKKLNRVGSTKEVHKYVNFLMTNDGIVKK” the value was 0.0518. For “HMLPLLAFDEKLNRLGYGGGFYDRTLASLAHKGNTITAIGIAYESQKMDKVPTGYFDRPLDGVLTPSGLIM” the value was 0.0274; for “HMGLSAEAARMAIQDAGLSKEDFAQKLGIKKVERVVEWEAGTSKPTFVQAQKIANATNIPFGYLFLVNPPK”, 0.0125.

Regarding “HMINSFDYLQAIFTELMKSQSKMTNQDAAKRLFMQGKVAVSNRDREGLRMVLAQLVTLLPKEELGGLSTVS”, the “soluble fraction (log2)” value came out at 0.0921. Regarding “HMPLEKGVVILDVTPSSAKVAVDGTSVETTYPLRLSAGLHQLSAEADGYDSITEYFKVETEKTTVTLDLSK”, the “soluble fraction (log2)” value amounted to 0.105. For “HMSMFAQQLKDLRKKIPGLTQTDMAKKLGIAKTTYASYEQGKRTPDIETQNKIADFFNVSLDYLHG” the value was -0.0838.

In the case of “HMGIRDIHITVNGESLKLSKKQNYIFVDIFDFYPFDLSILGGSKLITTINGEQAEFTSPLKDGDVVELYWK”, the “soluble fraction (log2)” value was -0.61.

Take “HMGETWYEILEISSDATTEEIRQAYFEQARQYHPDTNPGELAREWFYQVQEAYETLSDPDRRRQYDESIKG”: the “soluble fraction (log2)” value was -0.402. For the sequence “HMNEKAALIFNEWSDFVSKDDEANAQIKFDELITLYKKTGYTKIALLEVATKQASNGDIEGALAKYSLLID”, the “soluble fraction (log2)” value was 0.208. The same measure for “HMIAVIKPSATAEQKAGLVDWIRGQGIDVHISEGHDYTVLGLIGDTSKIDMDLIASLDIVDSVKRVA”: -0.0298; for “HMKGQLVVFPNPASSNDMVRFNKNISFSIFDITGHLVDTKRNVNELSVGNLEAGTYILRTEQGDVLRMVI”: -1.24; for “HMVINQRKLNLLSIYSSGSEKRAIILFPTGQTKFVKVGDTLDGGRVAAIGTSEIRYLKGGNNLVLRIPG”: -2.63. Take “HMDNRLFKMLYYLLDKERATAPELAAEFEVSTRTIYRDVEALSSAGIPIYAEPGRNGGIYLLQD”: the “soluble fraction (log2)” value is -2.21.

Take “HMAHLSPNDAARLVGVSRPLLNQILDEGRITFFETAGGHRKIKLAAVLAYIKERDEVAAQLAAART”: the “soluble fraction (log2)” value was -0.746. In the case of “HMKNETFAITSEDAGKRLDVWLTNILGDYSRSYVERLVEQGNVTVGGKTVKAGYKLKAGDSVQVSIPGPK”, the “soluble fraction (log2)” value was found to be 0.138. For “HMKRTKLEEATEWLRDRLSDGVKYNGEELLREGESADMARRTLRRAAQELGVIIERERGARGRWFWSLP” the value was -0.515; for “HMTIPSYAEAVRYVRRQPRINTSTLADGLGIRWSLALDYLERMARSGVVGAIEDDGWWPVAR”, -0.71.

For the sequence “HMKNAMTDIYLEEIKKILTKNEFLVYTLRELNNFSVQFITDNYDLSEKTIYNSVYRAKKKIDRHFT”, the “soluble fraction (log2)” value was -0.0693. Take “HMLHVRSALMSELDGIEGIGEKRKRLLFDAFITRDAIAAATLEQLMAVKGMNRPSAEAVHKHFHG”: the “soluble fraction (log2)” value is -0.53.
